Test results as given in US20060104980A1.

Experiments:
[1] = biological target: HCV 1b E2 construct sf1b-E2 (amino acids 384-661 in pDisplay) (influenza virus; Hepatitis C virus genotype 1b); experiment: flow cytometry, CHO cells expressing sf1b-E2
[2] = biological target: denatured HCV 1b E2 protein (Q1b) (Hepatitis C virus genotype 1b); experiment: GNA capture ELISA, denatured against native E2 (FIG. 9)
[3] = biological target: HCV E2 protein of genotype 1a expressed by vaccinia virus construct Q1a (Hepatitis C virus genotype 1a); experiment: competition on GNA-captured E2; 20 µg/ml competitor against biotinylated CBH-4G
[4] = biological target: HCV 1b E2 (Q1b) bound to GST-CD81-LEL (Hepatitis C virus genotype 1b; human) (UniProt P60033); experiment: ELISA, 1b E2 captured by CD81-LEL; 50% of maximum binding
[5] = biological target: HCV 1b E2 deletion construct pDN-470 (Hepatitis C virus genotype 1b) (UniProt Q9WMX2); experiment: GNA capture ELISA, HEK-293 extracts
[6] = biological target: HCV 1b E2 construct sf1b-E2 (amino acids 384-661 in pDisplay) (influenza virus; Hepatitis C virus genotype 1b); experiment: GNA capture ELISA, HEK-293 extracts
[7] = biological target: HCV 1b E2 deletion construct pDN-447 (Hepatitis C virus genotype 1b) (UniProt P29846); experiment: GNA capture ELISA, HEK-293 extracts
[8] = biological target: HCV 1b E2 construct sf1b-E2 (amino acids 384-661 in pDisplay) (influenza virus; Hepatitis C virus genotype 1b); experiment: flow cytometry, CHO cells expressing sf1b-E2, 10 ug/ml
[9] = biological target: HCV E2 1a protein produced in mammalian cells (Rosa et al.) (Hepatitis C virus genotype 1a); experiment: NOB assay
[10] = biological target: HCV 1b E2 deletion construct pDN-470 (Hepatitis C virus genotype 1b) (UniProt Q9WMX2); experiment: flow cytometry, transiently transfected HEK-293 cells, 10 ug/ml
[11] = biological target: HCV 1b E2 deletion construct pDC-644 (Hepatitis C virus genotype 1b); experiment: as above
[12] = biological target: HCV 1b E2 deletion construct pDN-447 (Hepatitis C virus genotype 1b) (UniProt P29846); experiment: as above
[13] = biological target: HCV 1b E2 deletion construct pDC-579 (Hepatitis C virus genotype 1b); experiment: as above
[14] = biological target: HCV E2 protein of genotype 1a expressed by vaccinia virus construct Q1a (Hepatitis C virus genotype 1a); experiment: competition ELISA; 20 µg/ml competitor against 2 µg/ml biotinylated CBH-2
[15] = biological target: HCV 1b E2 deletion construct pDC-644 (Hepatitis C virus genotype 1b); experiment: GNA capture ELISA, HEK-293 extracts
[16] = biological target: HCV E2 1a protein produced in mammalian cells (Rosa et al.) (Hepatitis C virus genotype 1a); experiment: NOB assay, inhibition of E2 binding to CD81 expressing Molt-4 cells, flow cytometry
[17] = biological target: HCV E2 protein of genotype 2a expressed by vaccinia virus construct Q2a (Hepatitis C virus genotype 2a); experiment: competition ELISA; 20 µg/ml competitor against 2 µg/ml biotinylated CBH-2
[18] = biological target: HCV E2 protein of genotype 1b expressed by vaccinia virus construct Q1b (Hepatitis C virus genotype 1b); experiment: as above
[19] = biological target: HCV E2 protein of genotype 2b expressed by vaccinia virus construct Q2b (Hepatitis C virus genotype 2b); experiment: as above
[20] = biological target: HCV E2 protein of genotype 1a expressed by vaccinia virus construct Q1a (Hepatitis C virus genotype 1a); experiment: competition ELISA; 25 µg/ml competitor against 5 µg/ml biotinylated CBH-5
[21] = biological target: HCV E2 protein of genotype 1b expressed by vaccinia virus construct Q1b (Hepatitis C virus genotype 1b); experiment: as above
[22] = biological target: HCV E2 protein of genotype 1a expressed by vaccinia virus construct Q1a (Hepatitis C virus genotype 1a); experiment: competition ELISA; competitor CBH-2 against biotinylated CBH-5
[23] = biological target: HCV E2 protein of genotype 1b expressed by vaccinia virus construct Q1b (Hepatitis C virus genotype 1b); experiment: as above
[24] = biological target: HCV E2 protein of genotype 1a expressed by vaccinia virus construct Q1a (Hepatitis C virus genotype 1a); experiment: competition ELISA; competitor CBH-5 against biotinylated CBH-2
[25] = biological target: HCV E2 protein of genotype 2a expressed by vaccinia virus construct Q2a (Hepatitis C virus genotype 2a); experiment: as above
[26] = biological target: HCV E2 protein of genotype 1b expressed by vaccinia virus construct Q1b (Hepatitis C virus genotype 1b); experiment: as above
[27] = biological target: HCV E2 protein of genotype 2b expressed by vaccinia virus construct Q2b (Hepatitis C virus genotype 2b); experiment: as above

Row | Substance | percent inhibition of biotinylated CBH-4G binding [3] [%] | OD [5] [od] | OD [6] [od] | OD [7] [od] | mean fluorescence [8] | mean fluorescence [10] | mean fluorescence [11] | mean fluorescence [12] | mean fluorescence [13] | percent inhibition of biotinylated CBH-2 binding [14] [%] | OD [15] [od] | IC50 [16] [µg/mL] | percent inhibition of biotinylated CBH-2 binding [17] [%] | percent inhibition of biotinylated CBH-2 binding [18] [%] | percent inhibition of biotinylated CBH-2 binding [19] [%] | other results
1 | HMAb CBH-17 (antibody) | < 50 | > 0.5 | > 0.5 | > 0.5 | 23 |  |  |  |  |  |  |  |  |  |  | fold reduced staining relative to the other HMAbs [1]: 10 fold; percent of reactivity retained with denatured E2 [2]: 90%; EC50 [4]: 3 µg/mL; IC50 [9]: > 25 µg/mL
2 | HMAb CBH-7 (antibody) | < 50 | > 0.5 | > 0.5 | > 0.5 | 303 | 14 | 27 | 26 | 2 | 60 | > 0.5 | 7 |  |  |  | 
3 | HMAb CBH-4B (antibody) | < 50 | > 0.5 | > 0.5 | > 0.5 | 241 | 9 | 18 | 21 | 2 |  | > 0.5 |  |  |  |  | EC50 [4]: 0.4 µg/mL; IC50 [9]: > 25 µg/mL
4 | HMAb CBH-8E (antibody) | < 50 |  | > 0.5 |  | 408 |  |  |  |  | > 75 | 0.1 to 0.5 | 8 | > 75 | > 75 | > 75 | percent inhibition of biotinylated CBH-5 binding [20]: 75%; percent inhibition of biotinylated CBH-5 binding [21]: 75%
5 | HMAb CBH-2 (antibody) | < 50 |  | > 0.5 |  | 338 |  |  |  |  | > 75 | 0.1 to 0.5 | 5 | > 75 | > 75 | > 75 | percent inhibition of biotinylated CBH-5 binding [22]: 50%; percent inhibition of biotinylated CBH-5 binding [23]: 50%
6 | HMAb CBH-5 (antibody) | < 50 |  | > 0.5 |  | 546 | 2 | 28 | 2 | 2 | > 75 | > 0.5 | 2 | > 75 | > 75 | > 75 | percent inhibition of biotinylated CBH-5 binding [20]: 85%; percent inhibition of biotinylated CBH-5 binding [21]: 85%; percent inhibition of biotinylated CBH-2 binding [24]: 80%; percent inhibition of biotinylated CBH-2 binding [25]: 80%; percent inhibition of biotinylated CBH-2 binding [26]: 80%; percent inhibition of biotinylated CBH-2 binding [27]: 80%
7 | HMAb CBH-8C (antibody) | < 50 |  | > 0.5 |  | 282 |  |  |  |  | > 75 | > 0.5 | 10 | > 75 | > 75 | > 75 | 
